# B1: 4025 (antibody, V domains shown)
# VH: EVQLVQSGAEVKKPGESLKISCKASGYSFSSYWIAWVRQMPGKGLEWMGFIYPADSDTRYSPSFQGQGTISADKSISTAYLQWSSLKASDTAMYYCAILGFWGANRGGGGMDVWGQGTTVIVSS
# VL: SYELTQPPSVSVSPGQTARITCSGDALPEKYAYWYQQKSGQAPVLIIYEDSKRPSGIPERFSGSRSGTMATLTISGAQVDDEADYYCYSTNSGGTFFVFGTGTKVTVLG
# Biological target: BG505-gp120
# Test: SPR
binder,measurement,value
B1,Kd,75 nM
